Data reported in patent US20140148381A1 (INDIANA UNIVERSITY RESEARCH AND TECHNOLOGY, published 2014).

Key:
[1] = molecular target: HBV Cp149-WT (wild type HBV core protein assembly domain, N-terminal first 149 residues), dimer (Hepatitis B virus, adyw strain); assay: SEC of assembly reactions, 100 mM NaCl, 23° C.
[2] = molecular target: HBV Cp149-WT (wild type HBV core protein assembly domain, N-terminal first 149 residues), dimer (Hepatitis B virus, adyw strain); assay: SEC of capsid and dimer after 72 h assembly at 100 mM NaCl, 23° C.; mean equilibrium dimer concentration
[3] = molecular target: HBV Cp149-WT (wild type HBV core protein assembly domain, N-terminal first 149 residues), dimer (Hepatitis B virus, adyw strain); assay: SEC of capsid and dimer after 72 h assembly at 100 mM NaCl, 23° C.; self-association of Cp149 dimers
[4] = molecular target: HBV wild type core protein expressed in Huh7 cells (subtype ayw) (Hepatitis B virus, subtype ayw) (UniProt P03146); assay: cell-based or functional assay
[5] = molecular target: the molecule itself; assay: SEC of assembly reactions, 100 mM NaCl, 72 h, 23° C.; 100 mM NaCl, 72 h, 23° C.; ratio of WT to V124W pseudo-critical concentration
[6] = molecular target: the molecule itself; assay: SEC of capsid and dimer after 72 h assembly at 100 mM NaCl, 23° C.; self-association of Cp149-V124W dimers; 100 mM NaCl, 23° C., SEC after 72 h equilibration; Table 3 value
[7] = molecular target: the molecule itself; assay: thermodynamic calculation from SEC, 23° C., 100 mM NaCl; 100 mM NaCl, 23° C.; value in the text, which differs from Table 3

HBV Cp149-WT (wild type HBV core protein assembly domain, N-terminal first 149 residues), dimer
pseudo-critical concentration [1]: 43.6 µM
KD, apparent [2]: 43.3 µM
ΔGcontact [3]: -2.74 kcal/mol

HBV V124W core protein expressed in Huh7 cells (subtype ayw) (from UniProt P03146 1-183)
dlDNA yield, Southern blot of encapsidated DNA, WT:V124W = 1:1 co-transfection in Huh7 cells [4]: 23 % of WT
rcDNA yield, Southern blot of encapsidated DNA, WT:V124W = 1:1 co-transfection in Huh7 cells [4]: 8 % of WT
ssDNA yield, Southern blot of encapsidated DNA, WT:V124W = 1:1 co-transfection in Huh7 cells [4]: 37 % of WT
total DNA yield, Southern blot of encapsidated DNA, WT:V124W = 1:1 co-transfection in Huh7 cells [4]: 31 % of WT

B1: HBV Cp149-V124W (core protein assembly domain with V124W), dimer (other)
chain: MDIDPYKEFGATVELLSFLPSDFFPSVRDLLDTAAALYRDALESPEHCSPHHTALRQAILCWGDLMTLATWVGTNLEDPASRDLVVSYVNTNVGLKFRQLLWFHISCLTFGRETVLEYLVSFGWWIRTPPAYRPPNAPILSTLPETTVV
notes: also called HBV Cpdominant 1; Cpdominant 1
fold difference of pseudo-critical concentration against WT [5]: 40 fold
ΔGcontact [6]: -3.84 kcal/mol
ΔGcont [7]: -3.73 kcal/mol
